Reference: patent publication US20240124553A1 (WASHINGTON UNIVERSITY, published 2024)

B1: Mxra8-Fc (mouse Mxra8 extracellular domain fused to mouse IgG2b Fc) (Fc fusion)
chain: SGPSGTAAASSSLVSESVVSLAAGTQAVLRCQSPRMVWTQDRLHDRQRVVHWDLSGGPGSQRRRLVDMYSAGEQRVYEPRDRDRLLLSPSAFHDGNFSLLIRAVDRGDEGVYTCNLHHHYCHLDESLAVRLEVTEDPLLSRAYWDGEKEVLVVAHGAPALMTCINRAHVWTDRHLEEAQQVVHWDRQLPGVSHDRADRLLDLYASGERRAYGPPFLRDRVSVNTNAFARGDFSLRIDELERADEGIYSCHLHHHYCGLHERRVFHLQVTEPAFEPPARASPGNGSGHSSAPSPDPTLTRGHSIINVIVPEDHTHPSGPISTINPCPPCKECHKCPAPNLEGGPSVFIFPPNIKDVLMISLTPKVTCVVVDVSEDDPDVQISWFVNNVEVHTAQTQTHREDYNSTIRVVSTLPIQHQDWMSGKEFKCKVNNKDLPSPIERTISKIKGLVRAPQVYILPPPAEQLSRKDVSLTCLVVGFNPGDISVEWTSNGHTEENYKDTAPVLDSDGSYFIYSKLNMKTSKWEKTDSFSCNVRHEGLKNYYLKKTISRSPGK
B2: Mxra8-Fc (mouse Mxra8 extracellular domain fused to mouse IgG2b Fc) (Fc fusion)
chain: B1 chain

Assays:
Assay in all cases: flow cytometry, transfected 293T cells
[1] = biological target: T1, CHIKV E2-E1 envelope glycoproteins (strain S27), E2 mutant F115A (chikungunya virus strain S27, UniProt Q8JUX5 1-1248; Q8JUX5 810-1248)
T1 construct: whole, on cells; E2 domain A

[2] = biological target: T2, CHIKV E2-E1 envelope glycoproteins (strain S27), E2 mutant R104A (chikungunya virus strain S27, UniProt Q8JUX5 1-1248; Q8JUX5 810-1248)
T2 construct: whole, on cells; E2 domain A

[3] = biological target: T3, CHIKV E2-E1 envelope glycoproteins (strain S27), E2 mutant A76S (chikungunya virus strain S27, UniProt Q8JUX5 1-1248; Q8JUX5 810-1248)
T3 construct: whole, on cells; E2 domain A

[4] = biological target: T4, CHIKV E2-E1 envelope glycoproteins (strain S27), E2 mutant K66A (chikungunya virus strain S27, UniProt Q8JUX5 1-1248; Q8JUX5 810-1248)
T4 construct: whole, on cells; E2 domain A

[5] = biological target: T5, CHIKV E2-E1 envelope glycoproteins (strain S27), E2 mutant R36A (chikungunya virus strain S27, UniProt Q8JUX5 1-1248; Q8JUX5 810-1248)
T5 construct: whole, on cells; E2 domain A

[6] = biological target: T6, CHIKV E2-E1 envelope glycoproteins (strain S27), E2 mutant D132A (chikungunya virus strain S27, UniProt Q8JUX5 1-1248; Q8JUX5 810-1248)
T6 construct: whole, on cells; E2 domain A

[7] = biological target: T7, CHIKV E2-6K-E1 envelope proteins (strain S27) with E2 I217A (Chikungunya virus strain S27, UniProt Q8JUX5 1-1248; Q8JUX5 810-1248)
T7 construct: whole, on cells

Row | Binder | Binding Reactivity (% WT) [1] [% WT] | Binding Reactivity (% WT) [2] [% WT] | Binding Reactivity (% WT) [3] [% WT] | Binding Reactivity (% WT) [4] [% WT] | Binding Reactivity (% WT) [5] [% WT] | Binding Reactivity (% WT) [6] [% WT] | Binding Reactivity (% WT) [7] [% WT]
1 | B1 | 3.3 | 49.9 | 85 | 93.1 | 68.3 | 105 | –
2 | B2 | – | – | – | – | – | – | 12.3
